US20030158083A1, “Method of effecting angiogenesis by modulating the function of a novel endothelia phosphatase” (The Procter & Gamble Company, priority 2002, published 2003)

Tests used:
VEGF receptor-2 [1] = biological target: T1, VEGF receptor-2 (Homo sapiens, UniProt P35968); assay: Co-immunoprecipitation with VEGF receptor-2 in HEK 293 cells; assay type: cell-based; settings: HEK 293 VEGFR2 stable cells, 1 nM VEGF 5 min or untreated, anti-VEGFR2 IP
T1 construct: Co-immunoprecipitation of full-length KAPh with full-length VEGF receptor-2; expressed in transfected cells
T1 sequence (P35968 20-1356): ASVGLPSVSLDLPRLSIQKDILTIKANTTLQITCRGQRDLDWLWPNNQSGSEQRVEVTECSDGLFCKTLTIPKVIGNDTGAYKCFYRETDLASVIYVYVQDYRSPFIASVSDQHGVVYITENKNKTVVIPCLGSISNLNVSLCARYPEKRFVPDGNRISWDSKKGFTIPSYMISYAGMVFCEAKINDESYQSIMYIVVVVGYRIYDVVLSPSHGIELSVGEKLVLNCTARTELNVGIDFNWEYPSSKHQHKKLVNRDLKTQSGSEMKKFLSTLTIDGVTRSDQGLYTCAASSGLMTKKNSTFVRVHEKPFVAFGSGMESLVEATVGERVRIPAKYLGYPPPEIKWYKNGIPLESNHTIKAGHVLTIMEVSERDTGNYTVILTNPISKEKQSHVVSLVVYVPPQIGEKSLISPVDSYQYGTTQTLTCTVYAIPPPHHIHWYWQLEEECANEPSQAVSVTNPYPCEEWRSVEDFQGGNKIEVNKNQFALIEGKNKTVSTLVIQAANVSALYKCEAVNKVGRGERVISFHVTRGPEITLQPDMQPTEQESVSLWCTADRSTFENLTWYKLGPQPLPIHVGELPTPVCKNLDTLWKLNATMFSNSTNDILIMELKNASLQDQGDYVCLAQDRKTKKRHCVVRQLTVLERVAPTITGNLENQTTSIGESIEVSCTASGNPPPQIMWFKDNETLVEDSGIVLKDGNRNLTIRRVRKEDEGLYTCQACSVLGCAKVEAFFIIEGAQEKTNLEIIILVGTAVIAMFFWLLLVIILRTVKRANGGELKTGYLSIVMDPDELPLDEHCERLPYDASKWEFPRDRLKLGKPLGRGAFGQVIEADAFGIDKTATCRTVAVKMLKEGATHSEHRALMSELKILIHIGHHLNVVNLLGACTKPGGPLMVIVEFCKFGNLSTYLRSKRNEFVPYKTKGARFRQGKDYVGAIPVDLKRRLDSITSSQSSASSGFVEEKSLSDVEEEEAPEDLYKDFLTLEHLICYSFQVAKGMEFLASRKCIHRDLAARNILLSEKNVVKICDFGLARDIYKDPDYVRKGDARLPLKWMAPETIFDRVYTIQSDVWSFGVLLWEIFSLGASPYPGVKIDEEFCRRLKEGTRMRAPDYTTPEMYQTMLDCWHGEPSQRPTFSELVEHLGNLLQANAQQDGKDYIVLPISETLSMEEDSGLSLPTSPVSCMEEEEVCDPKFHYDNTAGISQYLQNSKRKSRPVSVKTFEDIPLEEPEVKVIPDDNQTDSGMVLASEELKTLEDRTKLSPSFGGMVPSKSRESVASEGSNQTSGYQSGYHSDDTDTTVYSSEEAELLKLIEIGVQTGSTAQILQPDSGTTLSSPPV
Description: Human umbilical vein endothelial cells (HUVEC) obtained from Clonetics (Walkersville, Md.) were cultured in endothelial growth medium (Clonetics) and were used up to passage 3. HEK 293 cells obtained from the American Type Culture Collection (Manasses, Va.) were cultured in cell growth medium (Dulbecco's modified Eagle's medium supplemented with 10% fetal bovine serum, 1% L-glutamine, 1% nonessential amino acids, and 1% antimycotics). For stable expression, hVEGFR2 was subcloned into pLNCX (Clontech, Palo Alto, Calif.), […] transfected into HEK 293 cells, and selected in the presence of Geneticin. The HEK 293 VEGFR2 clonal cell line was transiently transfected with either the SH2 domain or full-length KAPh in the mammalian expression vector pcDNA4/HisMax (Invitrogen, Carlsbad, Calif.). All constructs were transfected using LipofectAMINE PLUS (Life Technologies, Rockville, Md.) in serum-free DMEM according to the manufacturer's instructions.
HEK 293 cells that stably expressed the VEGF receptor-2 were transiently transfected to express the KAPh SH2 domain or full-length KAPh were treated with 1 nM VEGF or left untreated for 5 min. The cells were lysed in 1% triton lysis buffer with protease inhibitors. Insoluble debris was removed from the lysates by centrifugation at 14,000×g for 10 min at 4° C. […]

VEGF receptor-2 [2] = biological target: T1, VEGF receptor-2; assay: Dephosphorylation of 32P-labeled VEGF receptor-2; assay type: biochemical; settings: incubated overnight; data not shown
Tie 2 = assay: GST pull-down association assay, Tie 2; assay type: binding, human; settings: wild-type and kinase-inactive mutant
From the text: Recombinant VEGFR-1 kinase (wild-type and K862R mutant), VEGFR2 kinase (wild-type and K870R mutant), Tie1 kinase (wild-type and K871R mutant), and Tie2 kinase (wild-type and K856R mutant) were expressed as glutathione S-transferase (GST) fusion proteins in Sf9 cells using a baculovirus expression system. Briefly, the intracellular domain of each receptor tyrosine kinase was generated as an in-frame GST fusion using the pAcGHLT baculovirus transfer vector (Pharmingen, San Diego, Calif.). Each baculovirus transfer vector construct was cotransfected with BaculoGold (Pharmingen, San Diego, Calif.) linearized AcNPV baculovirus DNA into Sf9 cells for the generation of recombinant baculoviruses. Five days post-transfection, recombinant baculoviruses were harvested and amplified by re-infection of Sf9 cells. Each amplified baculovirus was then used to infect Sf9 cells for the expression of the recombinant kinases. […]
The immobilized, autophosphorylated kinases were then incubated with HEK 293 cell lysates which overexpressed either the KAPh SH2 domain or KAPh full-length protein. […] KAPh protein that associated with the recombinant kinases was analyzed by Western blot using a chemiluminescence detection system (Amersham Pharmacia, Piscataway, N.J.).

- co-immunoprecipitation with VEGFR2 (VEGF receptor-2 [1]): detected in cells stimulated with VEGF
B1: KAPh: novel human KDR Associated Phosphatase protein, full-length sequence SEQ ID NOS 1 and 2 (protein, listed as Homo sapiens)
chain: MKPRKAEPHSFREKVFRKKPPVCAVCKVTIDGTGVSCRVCKVATHRKCEAKVTSACQALPPVELRRNTAPVRRIEHLGSTKSLNHSKQRSTLPRSFSLDPLMERRWDLDLTYVTERILAAAFPARPDEQRHRGHLRELAHVLQSKHRDKYLLFNLSEKRHDLTRLNPKVQDFGWPELHAPPLDKLCSICKAMETWLSADPQHVVVLYCKGNKGKLGVIVSAYMHYSKISAGADQALATLTMRKFCEDKVATELQPSQRRYISYFSGLLSGSIRMNSSPLFLHYVLIPMLPAFEPGTGFQPFLKIYQSMQLVYTSGVYHIAGPGPQQLCISLEPALLLKGDVMVTCYHKGGRGTDRTLVFRVQFHTCTIHGPQLTFPKDQLDEAWTDERFPFQASVEFVFSSSPEKIKGSTPRNDPSVSVDYNTTEPAVRWDSYENFNQHHEDSVDGSLTHTRGPLDGSPYAQVQRPPRQTPPAPSPEPPPPPMLSVSSDSGHSSTLTTEPAAESPGRPPPTAAERQELDRLLGGCGVASGGRGAGRETAILDDEEQPTVGGGPHLGVYPGHRPGLSRHCSCRQGYREPCGVPNGGYYRPEGTLERRRLAYGGYEGSPQGYAEASMEKRRLCRSLSEGLYPYPPEMGKPATGDFGYRAPGYREVVILEDPGLPALYPCPACEEKLALPTAALYGLRLEREAGEGWASEAGKPLLHPVRPGHPLPLLLPACGHHHAPMPDYSCLKPPKAGEEGHEGCSYTMCPEGRYGHPGYPALVTYSYGGAVPSYCPAYGRVPHSCGSPGEGRGYPSPGAHSPRAGSISPGSPPYPQSRKLSYEIPTEEGGDRYPLPGHLASAGPLASAESLEPVSWREGPSGHSTLPRSPRDAPCSASSELSGPSTPLHTSSPVQGKESTRRQDTRSPTSAPTQRLSPGEALPPVSQAGTGKAPELPSGSGPEPLAPSPVSPTFPPSSPSDWPQERSPGGHSDGASPRSPVPTTLPGLRHAPWQGPRGPPDSPDGSPLTPVPSQMPWLVASPEPPQSSPTPAFPLAASYDTNGLSQPPLPEKRHLPGPGQQPGPWGPEQASSPARGISHHVTFAPLLSDNVPQTPEPPTQESQSNVKFVQDTSKFWYKPHLSRDQAIALLKDKDPGAFLIRDSHSFQGAYGLALKVATPPPSAQPWKGDPVEQLVRHFLIETGPKGVKIKGCPSEPYFGSLSALVSQHSISPISLPCCLRILSKDPLEETPEAPVPTNMSTAADLLRQGAACSVLYLTSVETESLTGPQAVARASSAALSCSPRPTPAVVHFKVSAQGITLTDNQRKLFFRRHYPVNSITFSSTDPQDRRWTNPDGTTSKIFGFVAKKPGSPWENVCHLFAELDPDQPAGAIVTFITKVLLGQRK
- change in phosphorylation of 32P-labeled VEGF receptor-2 (VEGF receptor-2 [2]): unable to detect a change in phosphorylation
- interaction with GST Tie 2 (Tie 2): no interaction
